From patent publication US20060177826A1 (SERUM BIOMEDICAL INSTITUTE, published 2006) come the findings set out here.

This assay has as its target T1, human beta-FSH subunit (SDK-X1X2 expression product) (human, UniProt P01225 19-129).
T1 construct: Expressed from pTPKBFSH in co-transfected COS-7L and CHO-S cells and tested as secreted protein in the culture supernatant; also called β subunit of human FSH
Nature of the assay: FSH-IRMA sandwich immunoradiometric assay (one mAb for the alpha subunit, one for the beta subunit) on supernatant of co-transfected cells; detects only the complete alpha and beta complex. Here is the method: Following transfection, the cells were cultured in a selective medium containing 1000 μg/ml Geneticine and 400 μg/ml Blasticidin for 7 days. Geneticine-Blasticidine-resistant cells were transferred in a new culture medium containing Geneticine (200 μg/ml) and Blasticidin (200 μg/mL), and cultured to a cell density of 10⁶ cells/ml. The supernatant of this culture was than tested for the presence of the multisubunit (alpha subunit and beta subunit non-covalently associated) FSH complex.
The presence of the alpha and beta FSH complex was detected using the BIOSOURCE FSH-IRMA Kit (Biosource Europe S.A., Cat # KIP0841-KIP0844), an immunoradiometric assay kit for the quantitation of Follicle Stimulating Hormone (FSH). This FSH-IRMA assay is based on the use of two monoclonal antibodies, one specific for the alpha subunit of FSH and one for the beta subunit of FSH. Thus this assay only detects the complete alpha and beta FSH complex. The supernatant of pLenti6/V5-glycalA and the pTPKBFSH co-transfected cells was tested using the FSH-IRMA kit according to manufacturer's instructions.

T1 sequence (P01225 19-129 limits assumed): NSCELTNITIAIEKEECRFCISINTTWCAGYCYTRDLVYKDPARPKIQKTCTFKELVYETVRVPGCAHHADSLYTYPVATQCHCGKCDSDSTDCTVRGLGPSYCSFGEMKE

B1: human alpha-FSH subunit (glycalA expression product) (ligand)
chain: not shown
notes: Expressed from pLenti6/V5-glycalA in co-transfected COS-7L and CHO-S cells and tested as secreted protein in the culture supernatant; also called alpha subunit of FSH
With B1, the binding result is “binds”.
